According to the supplement of paper PMC11316812:
± gives the standard deviation of the averaged measurements.

What was measured:
[1] = test system: hTERT-HMEC; assay: percentage of EdU-negative (G0-arrested) nuclei per well, 72 h; higher = more G0 arrest; details: reference: sequence is the full UniProt precursor, the tested protein was the secreted form or ectodomain
[2] = test system: MCF7; assay: as above; details: reference: sequence is the full UniProt precursor, the tested protein was the secreted form or ectodomain
[3] = protein concentration 0.0225 µM
[4] = protein concentration 0.03125 µM
[5] = protein concentration 0.3125 µM
[6] = protein concentration 0.03108 µM
[7] = protein concentration 0.3108 µM
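Further: secreted proteins added to cultured cells, EdU pulse at the end, nuclei found by Hoechst imaging, EdU status from nuclear versus surrounding ring intensity ratio, PBS as neutral control.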

## MALPFALMMALVVLSCKSSCSLGCNLSQTHSLNNRRTLMLMAQMRRISPFSCLKDRHDFEFPQEEFDGNQFQKAQAISVLHEMMQQTFNLFSTKNSSAAWDETLLEKFYIELFQQMNDLEACVIQEVGVEETPLMNEDSILAVKKYFQRITLYLMEKKYSPCAWEVVRAEIMRSLSFSTNLQKRLRRKD
[1]; protein concentration 0.03 µM
  percentage of EdU-negative: 21.5 ± 5.7%
[1]; protein concentration 0.3 µM
  percentage of EdU-negative: 34.2 ± 2.4%
[2]; protein concentration 0.03 µM
  percentage of EdU-negative: 49.17 ± 0.42%
[2]; protein concentration 0.3 µM
  percentage of EdU-negative: 48.8 ± 4.3%

## MRRRRAGGRTMVERASKFVLVVAGSVCFMLILYQYAGPGLSLGAPGGRAPPDDLDLFPTPDPHYEKKYYFPVRELERSLRFDMKGDDVIVFLHIQKTGGTTFGRHLVQNVRLEVPCDCRPGQKKCTCYRPNRRETWLFSRFSTGWSCGLHADWTELTNCVPGVLDRRDSAALRTPRKFYYITLLRDPVSRYLSEWRHVQRGATWKTSLHMCDGRTPTPEELPPCYEGTDWSGCTLQEFMDCPYNLANNRQVRMLADLSLVGCYNLSFIPEGKRAQLLLESAKKNLRGMAFFGLTEFQRKTQYLFERTFNLKFIRPFMQYNSTRAGGVEVDEDTIRRIEELNDLDMQLYDYAKDLFQQRYQYKRQLERREQRLRSREERLLHRAKEALPREDADEPGRVPTEDYMSHIIEKW
[1]; protein concentration 0.01 µM
  percentage of EdU-negative: 5.25 ± 0.85%
[1]; protein concentration 0.1 µM
  percentage of EdU-negative: 31.7 ± 5.8%
[2]; protein concentration 0.01 µM
  percentage of EdU-negative: 25.6 ± 0.82%
[2]; protein concentration 0.1 µM
  percentage of EdU-negative: 28.9 ± 4%

## MPMFIVNTNVPRASVPDGFLSELTQQLAQATGKPPQYIAVHVVPDQLMAFGGSSEPCALCSLHSIGKIGGAQNRSYSKLLCGLLAERLRISPDRVYINYYDMNAANVGWNNSTFA
[1]; [3]
  percentage of EdU-negative: 4.84 ± 1.4%
[1]; protein concentration 0.225 µM
  percentage of EdU-negative: 6.38 ± 1.7%
[2]; [3]
  percentage of EdU-negative: 24.4 ± 1.2%
[2]; protein concentration 0.225 µM
  percentage of EdU-negative: 26.3 ± 2%

## MKLLHVFLLFLCFHLRFCKVTYTSQEDLVEKKCLAKKYTHLSCDKVFCQPWQRCIEGTCVCKLPYQCPKNGTAVCATNRRSFPTYCQQKSLECLHPGTKFLNNGTCTAEGKFSVSLKHGNTDSEGIVEVKLVDQDKTMFICKSSWSMREANVACLDLGFQQGADTQRRFKLSDLSINSTECLHVHCRGLETSLAECTFTKRRTMGYQDFADVVCYTQKADSPMDDFFQCVNGKYISQMKACDGINDCGDQSDELCCKACQGKGFHCKSGVCIPSQYQCNGEVDCITGEDEVGCAGFASVTQEETEILTADMDAERRRIKSLLPKLSCGVKNRMHIRRKRIVGGKRAQLGDLPWQVAIKDASGITCGGIYIGGCWILTAAHCLRASKTHRYQIWTTVVDWIHPDLKRIVIEYVDRIIFHENYNAGTYQNDIALIEMKKDGNKKDCELPRSIPACVPWSPYLFQPNDTCIVSGWGREKDNERVFSLQWGEVKLISNCSKFYGNRFYEKEMECAGTYDGSIDACKGDSGGPLVCMDANNVTYVWGVVSWGENCGKPEFPGVYTKVANYFDWISYHVGRPFISQYNV
[1]; protein concentration 0.021 µM
  percentage of EdU-negative: 4.11 ± 0.1%
[1]; protein concentration 0.21 µM
  percentage of EdU-negative: 4.288 ± 0.024%
[2]; protein concentration 0.021 µM
  percentage of EdU-negative: 24.6 ± 0.98%
[2]; protein concentration 0.21 µM
  percentage of EdU-negative: 27.3 ± 1.3%

## MKLAVTLTLVTLALCCSSASAEICPSFQRVIETLLMDTPSSYEAAMELFSPDQDMREAGAQLKKLVDTLPQKPRESIIKLMEKIAQSSLCN
[1]; [4]
  percentage of EdU-negative: 4.77 ± 0.77%
[1]; [5]
  percentage of EdU-negative: 4.91 ± 0.97%
[2]; [4]
  percentage of EdU-negative: 22.8 ± 2.1%
[2]; [5]
  percentage of EdU-negative: 24.6 ± 0.57%

## MEFLWAPLLGLCCSLAAADRHTVFWNSSNPKFRNEDYTIHVQLNDYVDIICPHYEDHSVADAAMEQYILYLVEHEEYQLCQPQSKDQVRWQCNRPSAKHGPEKLSEKFQRFTPFTLGKEFKEGHSYYYISKPIHQHEDRCLRLKVTVSGKITHSPQAHDNPQEKRLAADDPEVRVLHSIGHSAAPRLFPLAWTVLLLPLLLLQTP
[1]; [6]
  percentage of EdU-negative: 6.23 ± 0.24%
[1]; [7]
  percentage of EdU-negative: 7.2445 ± 0.004%
[2]; [6]
  percentage of EdU-negative: 24.521 ± 0.0085%
[2]; [7]
  percentage of EdU-negative: 24.81 ± 0.061%

## MSSFSTTTVSFLLLLAFQLLGQTRANPMYNAVSNADLMDFKNLLDHLEEKMPLEDEVVPPQVLSEPNEEAGAALSPLPEVPPWTGEVSPAQRDGGALGRGPWDSSDRSALLKSKLRALLTAPRSLRRSSCFGGRMDRIGAQSGLGCNSFRY
[1]; [3]
  percentage of EdU-negative: 4.9 ± 0.49%
[1]; protein concentration 0.225 µM
  percentage of EdU-negative: 6.92 ± 0.56%
[2]; [3]
  percentage of EdU-negative: 25 ± 2.1%
[2]; protein concentration 0.225 µM
  percentage of EdU-negative: 25.7 ± 1.1%

## MKLVFLVLLFLGALGLCLAGRRRSVQWCAVSQPEATKCFQWQRNMRKVRGPPVSCIKRDSPIQCIQAIAENRADAVTLDGGFIYEAGLAPYKLRPVAAEVYGTERQPRTHYYAVAVVKKGGSFQLNELQGLKSCHTGLRRTAGWNVPIGTLRPFLNWTGPPEPIEAAVARFFSASCVPGADKGQFPNLCRLCAGTGENKCAFSSQEPYFSYSGAFKCLRDGAGDVAFIRESTVFEDLSDEAERDEYELLCPDNTRKPVDKFKDCHLARVPSHAVVARSVNGKEDAIWNLLRQAQEKFGKDKSPKFQLFGSPSGQKDLLFKDSAIGFSRVPPRIDSGLYLGSGYFTAIQNLRKSEEEVAARRARVVWCAVGEQELRKCNQWSGLSEGSVTCSSASTTEDCIALVLKGEADAMSLDGGYVYTAGKCGLVPVLAENYKSQQSSDPDPNCVDRPVEGYLAVAVVRRSDTSLTWNSVKGKKSCHTAVDRTAGWNIPMGLLFNQTGSCKFDEYFSQSCAPGSDPRSNLCALCIGDEQGENKCVPNSNERYYGYTGAFRCLAENAGDVAFVKDVTVLQNTDGNNNEAWAKDLKLADFALLCLDGKRKPVTEARSCHLAMAPNHAVVSRMDKVERLKQVLLHQQAKFGRNGSDCPDKFCLFQSETKNLLFNDNTECLARLHGKTTYEKYLGPQYVAGITNLKKCSTSPLLEACEFLRK [E7EQB2]
[1]; protein concentration 0.01 µM
  percentage of EdU-negative: 5.27 ± 0.58%
[1]; protein concentration 0.1 µM
  percentage of EdU-negative: 5.87 ± 0.35%
[2]; protein concentration 0.01 µM
  percentage of EdU-negative: 22.5 ± 0.39%
[2]; protein concentration 0.1 µM
  percentage of EdU-negative: 24.6 ± 0.5%
